In patent US10196657B2, “Methods of producing 7-carbon chemicals via methyl-ester shielded carbon chain elongation” (INVISTA North America S.á r.l., priority 2012, dated 2019):

Key:
Format in all cases: biochemical
[1] = Thioesterase enzyme activity assay, pimeloyl-CoA to pimelate (release of CoA, Ellman's reagent); conditions: 667 μM pimeloyl-CoA, 0.8 μM enzyme, pH 7.4, 37° C., 20 min; relative to empty vector control; FIG. 8
Protocol: A sequence encoding an N-terminal His tag was added to the tesB gene from Escherichia coli that encodes a thioesterase (SEQ ID NO 1, see FIG. 7A), such that an N-terminal HIS tagged thioesterase could be produced. The modified tesB gene was cloned into a pET15b expression vector under control of the T7 promoter. The expression vector was transformed into a BL21[DE3] E. coli host. The resulting recombinant E. coli strain was cultivated at 37° C. in a 500 mL shake flask culture containing 50 mL Luria Broth (LB) media and antibiotic selection pressure, with shaking at 230 rpm. The culture was induced overnight at 17° C. using 0.5 mM IPTG.
The pellet from the induced shake flask culture was harvested via centrifugation. The pellet was resuspended and lysed in Y-Per™ solution (ThermoScientific, Rockford, Ill.). The cell debris was separated from the supernatant via centrifugation. […]
The enzyme activity assay was performed in triplicate in a buffer composed of 50 mM phosphate buffer (pH=7.4), 0.1 mM Ellman's reagent, and 667 μM of pimeloyl-CoA (as substrate). […] The release of Coenzyme A was monitored by absorbance at 412 nm. The absorbance associated with the substrate only control, which contained boiled enzyme, was subtracted from the active enzyme assay absorbance and compared to the empty vector control.

[2] = Carboxylate reductase activity assay, pimelate to pimelate semialdehyde (NADPH consumption); conditions: purified enzyme enhanced by sfp gene product, 2 mM pimelate, room temperature, 20 min; against empty vector control; FIG. 10
Protocol: A sequence encoding a HIS-tag was added to the genes from Segniliparus rugosus and Segniliparus rotundus that encode the carboxylate reductases of SEQ ID NOs: 4 and 7, respectively (see FIGS. 7C and 7F), such that N-terminal HIS tagged carboxylate reductases could be produced. Each of the modified genes was cloned into a pET Duet expression vector along with a sfp gene encoding a HIS-tagged phosphopantetheine transferase from Bacillus subtilis, both under the T7 promoter. Each expression vector was transformed into a BL21[DE3] E. coli host and the resulting recombinant E. coli strains were cultivated at 37° C. in a 250 mL shake flask culture containing 50 mL LB media and antibiotic selection pressure, with shaking at 230 rpm. Each culture was induced overnight at 37° C. using an auto-induction media.
The pellet from each induced shake flask culture was harvested via centrifugation. Each pellet was resuspended and lysed via sonication, and the cell debris was separated from the supernatant via centrifugation. […]
Enzyme activity assays (i.e., from pimelate to pimelate semialdehyde) were performed in triplicate in a buffer composed of a final concentration of 50 mM HEPES buffer (pH=7.5), 2 mM pimelate, 10 mM MgCl2, 1 mM ATP and 1 mM NADPH. […] The consumption of NADPH was monitored by absorbance at 340 nm.

[3] = Carboxylate reductase activity assay, N7-acetyl-7-aminoheptanoate to N7-acetyl-7-aminoheptanal; conditions: purified enzyme enhanced by sfp gene product, 2 mM substrate, room temperature, 20 min; against empty vector control; FIG. 12
Protocol: The activity of each of the N-terminal His-tagged carboxylate reductases of SEQ ID NOs: 3, 6, and 7 (see Examples 4, and FIGS. 7B, 7E, and 7F) for converting N7-acetyl-7-aminoheptanoate to N7-acetyl-7-aminoheptanal was assayed in triplicate in a buffer composed of a final concentration of 50 mM HEPES buffer (pH=7.5), 2 mM N7-acetyl-7-aminoheptanoate, 10 mM MgCl2, 1 mM ATP, and 1 mM NADPH. The assays were initiated by adding purified carboxylate reductase and phosphopantetheine transferase or the empty vector control to the assay buffer containing the N7-acetyl-7-aminoheptanoate then incubated at room temperature for 20 min. The consumption of NADPH was monitored by absorbance at 340 nm.

[4] = Carboxylate reductase activity assay, pimelate semialdehyde to heptanedial; conditions: purified enzyme enhanced by sfp gene product, 2 mM pimelate semialdehyde, room temperature, 20 min; against empty vector control; FIG. 13
Protocol: The N-terminal His-tagged carboxylate reductase of SEQ ID NO 7 (see Example 4 and FIG. 7F) was assayed using pimelate semialdehyde as substrate. The enzyme activity assay was performed in triplicate in a buffer composed of a final concentration of 50 mM HEPES buffer (pH=7.5), 2 mM pimelate semialdehyde, 10 mM MgCl2, 1 mM ATP and 1 mM NADPH. The enzyme activity assay reaction was initiated by adding purified carboxylate reductase and phosphopantetheine transferase or the empty vector control to the assay buffer containing the pimelate semialdehyde and then incubated at room temperature for 20 min. The consumption of NADPH was monitored by absorbance at 340 nm.

[5] = Pimeloyl-[acp] methyl ester methylesterase activity assay, pimeloyl-CoA methyl ester to pimeloyl-CoA (LC-MS); conditions: 10 μM enzyme, 5 mM pimeloyl-CoA methyl ester, pH 7.0, 30° C., 1 h; FIG. 20
Protocol: A nucleotide sequence encoding a C-terminal His-tag was added to the gene from Escherichia coli encoding the pimeloyl-[acp] methylester methylesterase of SEQ ID NO: 17 (see FIG. 7H) such that a C-terminal HIS tagged pimeloyl-[acp] methyl ester methylesterase could be produced. The resulting modified gene was cloned into a pET28b+ expression vector under control of the T7 promoter and the expression vector was transformed into a BL21[DE3] E. coli host. The resulting recombinant E. coli strain was cultivated at 37° C. in a 500 mL shake flask culture containing 100 mL LB media and antibiotic selection pressure, with shaking at 230 rpm. Each culture was induced overnight at 18° C. using 0.3 mM IPTG.
The pellet from each induced shake flask culture was harvested via centrifugation. Each pellet was resuspended and lysed via sonication. The cell debris was separated from the supernatant via centrifugation. […]
Enzyme activity assays converting pimeloyl-CoA methyl ester to pimeloyl-CoA were performed in triplicate in a buffer composed of a final concentration of 25 mM Tris.HCl buffer (pH=7.0) and 5 [mM] pimeloyl-CoA methyl ester. […] The formation of pimeloyl-CoA was quantified via LC-MS.

B1: gene product of tesB: Escherichia coli thioesterase encoded by tesB, GenBank Accession No. AAA24665.1 (protein, listed as Escherichia coli)
chain: MSQALKNLLTLLNLEKIEEGLFRGQSEDLGLRQVFGGQVVGQALYAAKETVPEERLVHSFHSYFLRPGDSKKPIIYDVETLRDGNSFSARRVAAIQNGKPIFYMTASFQAPEAGFEHQKTMPSAPAPDGLPSETQIAQSLAHLLPPVLKDKFICDRPLEVRPVEFHNPLKGHVAEPHRQVWIRANGSVPDDLRVHQYLLGYASDLNFLPVALQPHGIGFLEPGIQIATIDHSMWFHRPFNLNEWLLYSVESTSASSARGFVRGEFYTQDGVLVASTVQEGVMRNHN
- acceptance of pimeloyl-CoA as substrate (release of Coenzyme A, absorbance at 412 nm) [1]: accepted pimeloyl-CoA as substrate

B2: SEQ ID NO 7: Segniliparus rotundus carboxylate reductase, Genbank Accession No. ADG98140.1 (protein, listed as Segniliparus rotundus)
chain: MTQSHTQGPQASAAHSRLARRAAELLATDPQAAATLPDPEVVRQATRPGLRLAERVDAILSGYADRPALGQRSFQTVKDPITGRSSVELLPTFDTITYRELRERATAIASDLAHHPQAPAKPGDFLASIGFISVDYVAIDIAGVFAGLTAVPLQTGATLATLTAITAETAPTLFAASIEHLPTAVDAVLATPSVRRLLVFDYRAGSDEDREAVEAAKRKIADAGSSVLVDVLDEVIARGKSAPKAPLPPATDAGDDSLSLLIYTSGSTGTPKGAMYPERNVAHFWGGVWAAAFDEDAAPPVPAINITFLPLSHVASRLSLMPTLARGGLMHFVAKSDLSTLFEDLKLARPTNLFLVPRVVEMLYQHYQSELDRRGVQDGTREAEAVKDDLRTGLLGGRILTAGFGSAPLSAELAGFIESLLQIHLVDGYGSTEAGPVWRDGYLVKPPVTDYKLIDVPELGYFSTDSPHPRGELAIKTQTILPGYYKRPETTAEVFDEDGFYLTGDVVAQIGPEQFAYVDRRKNVLKLSQGEFVTLAKLEAAYSSSPLVRQLFVYGSSERSYLLAVIVPTPDALKKFGVGEAAKAALGESLQKIARDEGLQSYEVPRDFIIETDPFTVENGLLSDARKSLRPKLKEHYGERLEAMYKELADGQANELRDIRRGVQQRPTLETVRRAAAAMLGASAAEIKPDAHFTDLGGDSLSALTFSNFLHDLFEVDVPVGVIVSAANTLGSVAEHIDAQLAGGRARPTFATVHGKGSTTIKASDLTLDKFIDEQTLEAAKHLPKPADPPRTVLLTGANGWLGRFLALEWLERLAPAGGKLITIVRGKDAAQAKARLDAAYESGDPKLAGHYQDLAATTLEVLAGDFSEPRLGLDEATWNRLADEVDFISHPGALVNHVLPYNQLFGPNVAGVAEIIKLAITTRIKPVTYLSTVAVAAGVEPSALDEDGDIRTVSAERSVDEGYANGYGNSKWGGEVLLREAHDRTGLPVRVFRSDMILAHQKYTGQVNATDQFTRLVQSLLATGLAPKSFYELDAQGNRQRAHYDGIPVDFTAESITTLGGDGLEGYRSYNVFNPHRDGVGLDEFVDWLIEAGHPITRIDDYDQWLSRFETSLRGLPESKRQASVLPLLHAFARPGPAVDGSPFRNTVFRTDVQKAKIGAEHDIPHLGKALVLKYADDIKQLGLL
- acceptance of pimelate as substrate (NADPH consumption, absorbance at 340 nm) [2]: accepted pimelate as substrate
- acceptance of N7-acetyl-7-aminoheptanoate as substrate (NADPH consumption, absorbance at 340 nm) [3]: accepted N7-acetyl-7-aminoheptanoate as substrate
- acceptance of pimelate semialdehyde as substrate, forming heptanedial (NADPH consumption, absorbance at 340 nm) [4]: accepted pimelate semialdehyde as substrate

B3: SEQ ID NO. 17: Escherichia coli pimelyl-[acp] methyl ester esterase, GenBank Accession No. AAC76437.1 (protein, listed as Escherichia coli)
chain: MNNIWWQTKGQGNVHLVLLHGWGLNAEVWRCIDEELSSHFTLHLVDLPGFGRSRGFGALSLADMAEAVLQQAPDKAIWLGWSLGGLVASQIALTHPERVQALVTVASSPCFSARDEWPGIKPDVLAGFQQQLSDDFQRTVERFLALQTMGTETARQDARALKKTVLALPMPEVDVLNGGLEILKTVDLRQPLQNVSMPFLRLYGYLDGLVPRKVVPMLDKLWPHSESYIFAKAAHAPFISHPAEFCHLLVALKQRV
- acceptance of pimeloyl-CoA methyl ester as substrate, forming pimeloyl-CoA (LC-MS) [5]: accepted pimeloyl-CoA methyl ester as substrate
